Measured values: article PMC7910490, “The biosynthetic pathway of potato solanidanes diverged from that of spirosolanes due to evolution of a dioxygenase” (Nature Communications, 2021)

Assays:
[1] = substrate: C[C@H]1CC[C@]2(NC1)O[C@H]1C[C@H]3[C@@H]4CC=C5C[C@@H](O[C@@H]6O[C@H](CO)[C@H](O)[C@H](O[C@@H]7O[C@H](CO)[C@@H](O)[C@H](O)[C@H]7O)[C@H]6O[C@@H]6O[C@@H](C)[C@H](O)[C@@H](O)[C@H]6O)CC[C@]5(C)[C@H]4CC[C@]3(C)[C@H]1[C@@H]2C; experiment: purified protein, by the assay type; set-up: LC-MS of product formation by purified recombinant enzyme; Michaelis-Menten nonlinear regression (ANEMONA); conditions: pH 7.2
Experimental: (§1) An in vitro enzyme activity assay was performed using 100 μl of reaction mixture containing 100 mM Bis–Tris–HCl (pH 7.2), 5 mM 2-oxoglutarate, 10 mM sodium ascorbate, 0.2 mM FeSO4, 25 μM substrate, and 1 μg purified recombinant proteins as the enzyme. The reaction was initiated by the addition of the enzyme and was carried out at 30 °C for 30 min. The reaction was then stopped by incubation for 2 min at 90 °C. After centrifugation, 20 μl of supernatant was diluted with 180 μl methanol and filtered through 0.2-μm nylon membrane filters (Acrodisc, Waters). An aliquot (2 μl) was analyzed using LC–MS, as described in “Feeding experiments” above. We determined the kinetic parameters of the recombinant DPS and St7070 in triplicate assays. The assays were conducted as described above, with minor modifications. Briefly, 0.1 μg purified DPS protein or 0.02 μg purified St7070 were used. […] A 20 μl sample of assay mixture was diluted with 180 μl methanol and filtered through 0.2-μm nylon membrane filters (Acrodisc, Waters). An aliquot (2 μl) was analyzed using LC–MS, as described above. The kinetic parameters were determined by nonlinear regression, using the ANEMONA program. Supplementary Fig. 21| Enzyme kinetics of purified recombinant DPS and St7070 with a-solamarine and (22S,25S)-spirosol-5-en-3b-ol. […]

[2] = substrate: C[C@H]1CC[C@]2(NC1)O[C@H]1C[C@H]3[C@@H]4CC=C5C[C@@H](O)CC[C@]5(C)[C@H]4CC[C@]3(C)[C@H]1[C@@H]2C; experiment: purified protein, by the assay type; set-up: LC-MS of product formation by purified recombinant enzyme; Michaelis-Menten nonlinear regression (ANEMONA); conditions: pH 7.2
Experimental: as §1

B1: St7070 (Solanum tuberosum) (protein)
chain: MASTKVTIPTIDFFNSELKPNTPQWELTKVQVFEALQEFGCFEAIYNKVPNEIREGMFDTLKEVFDFPLSKLIEYREKPFHIYDGQIPSVPLFGSVYSADLVLPNSVETFANTFWSHGNPNFSNVAKSYFKQLMELNGMVEKMVLESLGLKNYIDEFLNSNVYMSRFTNYKVIKGENENKSGLPSHTDSSYLTIIKQNQNGLQVLYKNGEWIELNHTSPNSYIVLSADALMAWTNDRLTSAQHRVVTTGDKDRFSVQLFSLVNPDYTLKVPKELVDEEHPLMYKPFKMPEYNKYLMLGAKNGLGVKNYCGL
Km [1]: 1.7 ± 0.24 µM | Km [2]: 19.6 ± 0.056 µM
